# Results: US20060293243A1, “Stable, buffered, pharmaceutical compositions including motilin-like peptides” (priority 2005, published 2006)
# Non-standard residues stand in square brackets, D forms with d. Me3N+ = N-terminal trimethylammonium
# How the values were obtained:
# Format in all cases: physicochemical
# [1] = Stability of motilin-like peptide following autoclaving and storage (HPLC, undegraded peptide remaining); conditions: 30 μg/ml in 10 mM sodium acetate buffer, pH 5.0; Type I glass vials; autoclaved at 121° C. for 15 minutes; storage for 3 months at 55° C.
# Procedure: The motilin-like peptide of SEQ ID NO.: 1 was dissolved at a concentration of 30 μg/ml in 10 mM sodium acetate buffer, pH 5.0. Samples of the peptide solution stored in Type I glass vials were autoclaved at 121° C. for 15 minutes and the autoclaved samples were incubated at 5° C., 25° C., 40° C., or 55° C. The potency of the peptide following storage at each temperature was measured over time by testing samples after incubation of one week, two weeks, three weeks, one month and three months. Potency was determined by using HPLC to measure the amount of undegraded peptide remaining in each sample.
# It will be appreciated by those skilled in the art that stability data obtained at such elevated temperatures (i.e., accelerated storage conditions) may be used to predict stability at lower, more typical storage temperatures over extended periods of time.
# [2] = Stability of lyophilized formulations of motilin-like peptide compositions (HPLC after reconstitution in water); conditions: 30 μg/ml in 10 mM citrate buffer, 1% w/v sucrose, pH 6.0, stored in 20 ml vial at 40° C. for several months, reconstituted in water
# Procedure: The motilin-like peptide including SEQ ID NO.: 1 was dissolved at a concentration of 30 μg/ml in 10 mM citrate buffer and 1% w/v of sucrose (bulking agent) at pH 6.0. The composition was lyophilized by standard techniques and stored in a 20 ml vial at 40° C. The potency of the motilin-like peptide was measured at the time intervals indicated in FIG. 5, by reconstituting the composition in water. Potency was determined by using HPLC to measure the amount of undegraded peptide remaining in each sample. […] Again, it will be appreciated by those skilled in the art that the stability of pharmaceutical compositions at elevated temperatures, such as 40° C. as in FIG. 5, may serve as the basis of prediction of stability for longer periods at more typical storage temperatures, such as approximately 20° C.-25° C. or 4° C.-8° C., for example.
# [3] = Stability profile of aqueous composition stored in Schott Type 1 glass vials (FIGS. 3 and 4); conditions: Schott Type 1 vials
# Source text: Some plastics have also proven to be effective in assisting in the stabilization of the peptide composition. In this regard, preferred plastics are cyclic olefin copolymers, available, for example, from West Pharmaceuticals under the product name CZ resin vials, or from Schott under the product name TopPac vials, or from Alcan packaging under the product name Ticona Topas serum vials. The compositions of the present invention may also be stored in PVC, as well as non-PVC flexible bags. When stored in the above described glass or plastic containers, the above-described storage times at the above-described storage temperatures can be achieved, although for storage periods of at least 18 months, Type I Plus (vapor treated silicon) vials and Type I Plus glass ampules are preferred. […] It will be appreciated by those skilled in the art that the measured stability of pharmaceutical compositions at elevated temperatures, such as 40° C. or higher, may serve as the basis of prediction of stability for longer periods at more typical storage temperatures, such as 20°-25° C. or 4°-8° C., for example. Such “accelerated storage” studies are common in the field of the present invention.
# [4] = Degradation during storage as a function of composition pH; conditions: pH approximately 3 to 9, most preferably approximately 4.8-5.2
# Procedure: In one embodiment, where the composition is provided in a “ready-to-use” form, the motilin-like peptide is dissolved in a buffer solution to provide an aqueous composition. […] More preferably, the pH of the pharmaceutical compositions is between approximately 4 and 6, more preferably 4.5 and 5.5 and, most preferably, between approximately 4.8-5.2. At these pH levels, the peptide of SEQ. ID. […] (The preferred pH of the composition may also be determined, in part, based on whether the composition is prepared as an aqueous composition or a lyophilized formulation, discussed below.)
substance,measurement,setting,value
"(Me3N) ^+Phe-Val-Pro-Ile-Phe-Thr-Tyr-Gly-Glu-Leu-Gln-D-Arg-Leu-Lys-NH2 ({Me3N+}-FVPIFTYGELQ[dR]LK-NH2) [SEQ ID NO.: 1, synthetic motilin-like peptide receptor agonist]",potency retained (amount of undegraded peptide remaining by HPLC),[1],greater than 90%
same,potency retained (amount of undegraded peptide remaining by HPLC),[2],greater than 90%
same,stability (maintenance of high levels of potency),"[3]; 30 μg/ml, several months at 5° C. to 55° C. (FIG. 4)",demonstrated stability
same,stability (maintenance of high levels of potency),"[3]; approximately 5 μg/ml, several months at 5° C. to 55° C. (FIG. 3)",demonstrated stability
same,degradation during storage,[4],only minimal degradation
